From publication PMC9569990 (International Journal of Molecular Sciences, 2022)

Columns and labels:
Test in all cases: SPR; cytokine immobilised on ProteOn GLH sensor chip by amine coupling (9,000-14,000 RU); S100P (wild type or mutant) as analyte, 62 nM-16 µM; 25 °C; 10 mM HEPES, 150 mM NaCl, 1 mM CaCl2, 0.05% TWEEN 20, pH 7.4; heterogeneous ligand model (two ligand populations), one-site model for IL-13; values averaged over analyte concentrations (n = 3-5)
Settings in all cases: both partners purified
Interleukin-22 = molecular target: T1, Interleukin-22 (human, UniProt Q9GZX6 34-179)
T1 construct: Interleukin-22, human, UniProt Q9GZX6; see the manufacturer's catalogue number; also called IL-22; source: bought: PeproTech (source E. coli)
T1 sequence (looked up): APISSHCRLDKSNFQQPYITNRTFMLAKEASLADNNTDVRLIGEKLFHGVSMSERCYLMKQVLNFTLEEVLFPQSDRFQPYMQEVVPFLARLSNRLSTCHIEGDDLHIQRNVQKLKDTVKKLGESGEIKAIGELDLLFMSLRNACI

Interleukin-20 = molecular target: T2, Interleukin-20 (human, UniProt Q9NYY1 25-176)
T2 construct: Interleukin-20, human, UniProt Q9NYY1; see the manufacturer's catalogue number; also called IL-20; source: bought: PeproTech (source E. coli)
T2 sequence (looked up): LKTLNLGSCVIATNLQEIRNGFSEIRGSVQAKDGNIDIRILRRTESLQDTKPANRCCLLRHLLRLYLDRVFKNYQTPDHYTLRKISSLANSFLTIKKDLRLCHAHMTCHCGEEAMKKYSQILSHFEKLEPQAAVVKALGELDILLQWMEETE

Growth hormone variant = molecular target: T3, Growth hormone variant (human, UniProt P01242 27-217)
T3 construct: Growth hormone variant, human, UniProt P01242; see the manufacturer's catalogue number; also called GH-V; source: bought: R&D Systems (source E. coli)

Somatotropin = molecular target: T4, Somatotropin (human, UniProt P01241 27-217)
T4 construct: Somatotropin (growth hormone), human, UniProt P01241; see the manufacturer's catalogue number; also called GH; growth hormone; source: bought: PeproTech (source E. coli)

Leptin = molecular target: T5, Leptin (human, UniProt P41159 22-167)
T5 construct: Leptin, human, UniProt P41159; see the manufacturer's catalogue number; source: bought: PeproTech (source E. coli)

Interleukin-21 = molecular target: T6, Interleukin-21 (human, UniProt Q9HBE4 25-162)
T6 construct: Interleukin-21, human, UniProt Q9HBE4; see the manufacturer's catalogue number; also called IL-21; source: bought: PeproTech (source E. coli)
T6 sequence (Q9HBE4 25-162): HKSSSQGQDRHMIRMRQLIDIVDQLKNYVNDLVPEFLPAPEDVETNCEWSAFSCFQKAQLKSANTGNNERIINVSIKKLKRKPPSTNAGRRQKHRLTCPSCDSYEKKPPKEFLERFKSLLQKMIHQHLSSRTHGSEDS

T3 sequence (P01242 27-217, change not shown): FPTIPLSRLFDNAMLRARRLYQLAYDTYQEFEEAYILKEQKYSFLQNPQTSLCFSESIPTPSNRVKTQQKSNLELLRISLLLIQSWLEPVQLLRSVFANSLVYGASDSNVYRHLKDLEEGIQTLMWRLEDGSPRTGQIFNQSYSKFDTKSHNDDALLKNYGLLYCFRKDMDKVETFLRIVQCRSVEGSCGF
T5 sequence (P41159 22-167): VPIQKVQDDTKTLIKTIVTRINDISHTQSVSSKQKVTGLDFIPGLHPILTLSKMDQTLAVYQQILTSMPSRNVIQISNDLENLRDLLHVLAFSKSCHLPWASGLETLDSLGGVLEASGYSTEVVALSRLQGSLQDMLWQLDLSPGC
T4 sequence (P01241 27-217): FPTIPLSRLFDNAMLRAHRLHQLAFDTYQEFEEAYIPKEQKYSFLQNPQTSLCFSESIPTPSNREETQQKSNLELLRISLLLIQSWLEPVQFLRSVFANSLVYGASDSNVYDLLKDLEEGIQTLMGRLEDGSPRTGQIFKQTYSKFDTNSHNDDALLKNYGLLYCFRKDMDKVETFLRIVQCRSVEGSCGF

B1: Human S100P protein (recombinant, Ca^2+-loaded) (natural protein)
chain: MTELETAMGMIIDVFSRYSGSEGSTQTLTKGELKVLMEKELPGFLQSGKDKDAVDKLLKDLDANGDAQVDFSEFIVFVAAITSACHKYFEKAGLK
notes: S100P protein, human, recombinant; probably the whole 95-residue protein (surmise); also called wild-type S100P; WT S100P; source: E. coli, prepared as previously described [28]
Kd1 (heterogeneous ligand model, population 1) (Interleukin-22): 482 nM
Kd2 (heterogeneous ligand model, population 2) (Interleukin-22): 780 nM
kd1 (heterogeneous ligand model, population 1) (Interleukin-22): 0.00764 s⁻¹
kd2 (heterogeneous ligand model, population 2) (Interleukin-22): 0.00276 s⁻¹
Kd1 (heterogeneous ligand model, population 1) (Interleukin-20): 403 nM
Kd2 (heterogeneous ligand model, population 2) (Interleukin-20): 537 nM
kd1 (heterogeneous ligand model, population 1) (Interleukin-20): 0.000442 s⁻¹
kd2 (heterogeneous ligand model, population 2) (Interleukin-20): 0.0246 s⁻¹
Kd1 (heterogeneous ligand model, population 1) (Growth hormone variant): 1.04 µM
Kd2 (heterogeneous ligand model, population 2) (Growth hormone variant): 2.73 µM
kd1 (heterogeneous ligand model, population 1) (Growth hormone variant): 0.00177 s⁻¹
kd2 (heterogeneous ligand model, population 2) (Growth hormone variant): 0.0181 s⁻¹
Kd1 (heterogeneous ligand model, population 1) (Somatotropin): 42.9 nM
Kd2 (heterogeneous ligand model, population 2) (Somatotropin): 266 nM
kd1 (heterogeneous ligand model, population 1) (Somatotropin): 0.000669 s⁻¹
kd2 (heterogeneous ligand model, population 2) (Somatotropin): 0.0142 s⁻¹
Kd1 (heterogeneous ligand model, population 1) (Leptin): 143 nM
Kd2 (heterogeneous ligand model, population 2) (Leptin): 404 nM
kd1 (heterogeneous ligand model, population 1) (Leptin): 0.000452 s⁻¹
kd2 (heterogeneous ligand model, population 2) (Leptin): 0.0307 s⁻¹
Kd1 (heterogeneous ligand model, population 1) (Interleukin-21): 272 nM
Kd2 (heterogeneous ligand model, population 2) (Interleukin-21): 285 nM
kd1 (heterogeneous ligand model, population 1) (Interleukin-21): 0.000928 s⁻¹
kd2 (heterogeneous ligand model, population 2) (Interleukin-21): 0.0126 s⁻¹
